Reference: doi:10.1101/2020.12.02.409011 (bioRxiv, 2020)

Molecular target: the molecule itself
Assay: crystal structure

B1: Bacillus subtilis PurR (purine synthesis transcription regulator), untagged (natural protein)
chain: MKFRRSGRLVDLTNYLLTHPHELIPLTFFSERYESAKSSISEDLTIIKQTFEQQGIGTLLTVPGAAGGVKYIPKMKQAEAEEFVQTLGQSLANPERILPGGYVYLTDILGKPSVLSKVGKLFASVFAEREIDVVMTVATKGIPLAYAAASYLNVPVVIVRKDNKVTEGSTVSINYVSGSSNRIQTMSLAKRSMKTGSNVLIIDDFMKAGGTINGMINLLDEFNANVAGIGVLVEAEGVDERLVDEYMSLLTLSTINMKEKSIEIQNGNFLRFFKDNLLKNGETES
- binding result: binds
